# From patent US6787359B1, “Gene transfer methods” (Takara Shuzo Co., Ltd., priority 1998, dated 2004)
# System: mouse leukemia L1210 cells
# Assay: Gene transfer with PM5neo virus on coated plates, G418-resistant cells by WST-1 absorbance
# Type: cell-based
# Settings: for Absorbance difference (450 nm-650 nm), G418-resistant cells: Experiment 2
# Procedure: 50 μl of […] solution of H-271, H-296, C-274, CH-271, CH-296, ColV, human basic fibroblast growth factor (bFGF; Progen), tenascin (Gibco) or epidermal growth factor (EGF; Takara Shuzo), or 50 μl of 2% bovine serum albumin (BSA, Sigma) was added to each well of a 96-well non-treated microplate for cell culture (Falcon). The plate was allowed to stand at 4° C. overnight and then washed twice with phosphate buffered saline (PBS; Roman Kogyo). Alternatively, after the plate was treated as described above, 0.1 ml of 4 mg/ml solution of 1-ethyl-3-dimethylaminopropylcarbodiimide hydrochloride (Sigma) in sterile pure water was dispensed to each well. The reaction was allowed to proceed at 37° C. for 2 hours. The plate was washed extensively with pure water to prepare a carbodiimide-treated plate. These plates were stored at 4° C. until viral infection experiments were conducted.
# 10^4 mouse leukemia L1210 cells (ATCC CCL-219), which had been grown in RPMI 1640 medium (Bio Whittaker) supplemented with 10% FCS, 50 units/ml penicillin and 50 μg/ml streptomycin, and 50 μl of PM5neo virus supernatant (10^4 cfu/ml) were added to the well of the microplate. After the plate was incubated for 24 hours, the medium was changed to the same medium containing G418 (Gibco) at a final concentration of 0.75 mg/ml, and the plate was then incubated for additional 48 hours. G418-resistance cells were assessed according to the method as described in S. Kim et al. [Gene Therapy, 3:1018-1020 (1996)] with a partial modification in which color developed using Premix WST-1 reagent (Takara Shuzo) was measured as absorbance at 450 nm. […] Absorbance at 450 nm and 650 nm was then measured using a microplate reader, and the difference (450 nm-650 nm) was calculated. The value obtained using a plate coated with 2% BSA without carbodiimide treatment was defined as background.
molecule,measurement,setting,value
"EGF: epidermal growth factor (Takara Shuzo) (protein, UniProt P01133 23-1207, looked up, Pro-epidermal growth factor) Pro-epidermal growth factor: PQHWSCPEGTLAGNGNSTCVGPAPFLIFSHGNSIFRIDTEGTNYEQLVVDAGVSVIMDFHYNEKRIYWVDLERQLLQRVFLNGSRQERVCNIEKNVSGMAINWINEEVIWSNQQEGIITVTDMKGNNSHILLSALKYPANVAVDPVERFIFWSSEVAGSLYRADLDGVGVKALLETSEKITAVSLDVLDKRLFWIQYNREGSNSLICSCDYDGGSVHISKHPTQHNLFAMSLFGDRIFYSTWKMKTIWIANKHTGKDMVRINLHSSFVPLGELKVVHPLAQPKAEDDTWEPEQKLCKLRKGNCSSTVCGQDLQSHLCMCAEGYALSRDRKYCEDVNECAFWNHGCTLGCKNTPGSYYCTCPVGFVLLPDGKRCHQLVSCPRNVSECSHDCVLTSEGPLCFCPEGSVLERDGKTCSGCSSPDNGGCSQLCVPLSPVSWECDCFPGYDLQLDEKSCAASGPQPFLLFANSQDIRHMHFDGTDYGTLLSQQMGMVYALDHDPVENKIYFAHTALKWIERANMDGSQRERLIEEGVDVPEGLAVDWIGRRFYWTDRGKSLIGRSDLNGKRSKIITKENISQPRGIAVHPMAKRLFWTDTGINPRIESSSLQGLGRLVIASSDLIWPSGITIDFLTDKLYWCDAKQSVIEMANLDGSKRRRLTQNDVGHPFAVAVFEDYVWFSDWAMPSVMRVNKRTGKDRVRLQGSMLKPSSLVVVHPLAKPGADPCLYQNGGCEHICKKRLGTAWCSCREGFMKASDGKTCLALDGHQLLAGGEVDLKNQVTPLDILSKTRVSEDNITESQHMLVAEIMVSDQDDCAPVGCSMYARCISEGEDATCQCLKGFAGDGKLCSDIDECEMGVPVCPPASSKCINTEGGYVCRCSEGYQGDGIHCLDIDECQLGEHSCGENASCTNTEGGYTCMCAGRLSEPGLICPDSTPPPHLREDDHHYSVRNSDSECPLSHDGYCLHDGVCMYIEALDKYACNCVVGYIGERCQYRDLKWWELRHAGHGQQQKVIVVAVCVVVLVMLLLLSLWGAHYYRTQKLLSKNPKNPYEESSRDVRSRRPADTEDGMSSCPQPWFVVIKEHQDLKNGGQPVAGEDGQAADGSMQPTSWRQEPQLCGMGTEQGCWIPVSSDKGSCPQVMERSFHMPSYGTQTLEGGVEKPHSLLSANPLWQQRALDPPHQMELTQ","Absorbance difference (450 nm-650 nm), G418-resistant cells",plate treated with carbodiimide,0.077 ± 0.038
same,"Absorbance difference (450 nm-650 nm), G418-resistant cells",plate untreated,0.030 ± 0.021
same,Appearance of G418-resistant cells (in words),carbodiimide treatment carried out,increased
